Data on one substance can be found in patent US11111295.

The assay addresses human claudin 18A2 (CLD18A2) (human). In words: cell-based or functional assay.

Where only a bound is given, the exact number is not on record here.

human claudin 18A2 (CLD18A2) (human), sequence (chain, as listed by the source limits assumed, form in doubt): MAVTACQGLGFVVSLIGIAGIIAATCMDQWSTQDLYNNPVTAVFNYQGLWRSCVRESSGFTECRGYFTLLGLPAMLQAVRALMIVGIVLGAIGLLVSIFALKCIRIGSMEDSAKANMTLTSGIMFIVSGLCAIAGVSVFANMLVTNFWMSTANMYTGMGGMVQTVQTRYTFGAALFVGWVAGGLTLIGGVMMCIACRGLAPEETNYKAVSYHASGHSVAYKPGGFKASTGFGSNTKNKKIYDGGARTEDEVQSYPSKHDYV

With hu8E5-28Z chimeric antigen receptor, the CAR-T cytotoxicity on AGS-A2 cells, effector-to-target ratio 3:1 is greater than 60% and the CAR-T cytotoxicity on BGC-823-A2 cells, effector-to-target ratio 3:1 is greater than 90%.
